{"source": "patent US20230183322A1", "about": "(PEKING UNIVERSITY, published 2023)", "binders": {"B1": {"name": "ABU-391 (antibody, V domains shown)", "VH": "EVQLVESGGGLIQPGGSLRLSCAASGFIVSSNYMSWVRQAPGKGLEWVSVIYSGGSTYYADSVKGRFTISRDNSKNTLYLQMNSLRAEDTAVYYCARDYGDYYFDYWGQGTLVTVSS", "VL": "not shown"}, "B2": {"name": "ABU-392 (antibody, V domains shown)", "VH": "B1 VH with G26E, S31R, Y79N", "VL": "EIVLTQSPGTLSLSPGERATLSCRASQGVSSFLAWYQQKPGQAPRLLIHGASSRATGIPDRFSGSGSGTDFTLTITRLEPEDFAVYYCQQYGSSPRTFGQGTKVEIK"}, "B3": {"name": "ABU-395 (antibody, V domains shown)", "VH": "B1 VH with L4V, I12V, I28T, S31F, S53P, D72H, L78V, Y102F", "VL": "not shown"}, "B4": {"name": "ABU-379 (antibody, V domains shown)", "VH": "EVQLVESGGGLVQPGGSLRLSCAASGFIVSSNYMSWVRQAPGKGLEWVSVIYSGGSTYYADSVKGRFTISRDNSKNTLYLRMNSLRAEDTAVYYCARAPYCSSRSCETWGQGTLVTVSS", "VL": "DIQMTQSPSSLSASVGDRVTITCQASQDIRNYLNWYQQKPGKAPNLLIYDASNLETGVPSRFSGSGSGTDFTFTINSLQPEDIATYYCQQYDNLPITFGQGTRLEIK"}, "B5": {"name": "ABU-380 (antibody, V domains shown)", "VH": "EVQLVESGGGLVQPGGSLRLSCAASGFTVSSNYMSWVRQAPGKGLEWVSLIYPGGSTYYADSVEGRFTISRDNSKNTLYLQMNSLRAEDTAVYYCAREIRVITPVEVWGQGTLVTVSS", "VL": "B4 VL with R30N, N31K, Q38L, N76S, Q89H, I96R, R103K, L104V"}, "B6": {"name": "ABU-386 (antibody, V domains shown)", "VH": "EVQLVESGGGLVQPGGSLRLSCAASGVTVSSNYMSWVRQAPGKGLEWVSAVYSGGSTYYADSVKGRFTISRHNSKNTLYLQMKSLRPEDTAIYYCARLINHYYDSSGDGGAFDIWGQGTMVTVSS", "VL": "QSALTQPASVSGSPGQSITISCTGTSSDVGSYNLVSWYQQRPGKAPKLILYEVTKRPSGVSNRFSGSKSGNTASLAISGLQAEDEADYYCCSYAGSSTWVFGGGTKLTVL"}, "B7": {"name": "ABU-381 (antibody, V domains shown)", "VH": "EVQLVESGGGLVQPGGSLRLSCAVSGFIVSRNYMTWVRQAPGKGLEWVSLIYSGGSTFYTNSVKGRFTISRDNSKNTLYLQMDSLRAEDTAVYYCARGPYPRFDYWGQGTLVTVSS", "VL": "not shown"}, "B8": {"name": "antigen-binding unit ABU-367 (antibody, V domains shown)", "VH": "B1 VH with F27I, S35T, Y58F, N83S, Y99L, D101P, Y103G, F104M, Y106V, L112T", "VL": "DIQLTQSPSFLSASVGDRVTITCRASQGISSDLAWYQQKPGKAPNLLIYAASTLQSGVPSRFSGSGSGTEFTLTISSLQPEDFATYYCQQLNSDLYTFGQGTKLEIK"}, "B9": {"name": "antigen-binding unit ABU-297 (antibody, V domains shown)", "VH": "EVQLLESGGGVVQPGGSLRLSCAASGFAFTTYAMNWVRQAPGRGLEWVSAISDGGGSAYYADSVKGRFTISRDNSKNTLYLQMNSLRAEDTAVYYCAKTRGRGLYDYVWGSKDYWGQGTLVTVSS", "VL": "not shown"}, "B10": {"name": "antigen-binding unit ABU-174 (antibody, V domains shown)", "VH": "QVQLQQWGAGLLKPSETLSLTCAVYGGSFSDYYWNWIRRPPGKGLEWIGEITHSGSTNYNPSLKSRVTISVDTSKNQFSLKLSSVTAADTAVYYCARGQGYGRVLLWFGEWGQGTLVTVSS", "VL": "EIVLTQSPATLSLSPGERATLSCRASQSVSTYLAWYQQKPGQAPRLLIYDASNRATGIPARFSGSGSGTDFTLTISSLEPEDFAVYYCQQRSNWITFGQGTRLEIK"}, "B11": {"name": "antigen-binding unit ABU-190 (antibody, V domains shown)", "VH": "EVQLVESGGGLIQPGGSLRLSCAASGITVSSNYMSWVRQAPGKGLEWVSVIYSGGSTDYADSVKGRFTISRDKSKNTLYLQMNSLRAEDTAVYYCARDLGEAGGMDVWGQGTTVTVSS", "VL": "AIQLTQSPSSLSASVGDRVTITCRASQGISSYLAWYQQKPGKAPKLLIYAASTLQSGVPSRFSGSGSGTDFTLTISSLQPEDFATYYCQQLNSYPPAFGGGTKVEIK"}}, "note": "Where a chain is given by its changes, count along the chain named."}
{"target": "S protein of the novel coronavirus SARS-CoV-2 (SARS-CoV-2, UniProt P0DTC2 14-1273)", "assay": "cell-based or functional assay", "units": {"IC50 for neutralizing SARS-CoV-2 pseudovirus (Huh-7 cells, luciferase)": "µg/mL"}}
{"binder": "B1", "IC50 for neutralizing SARS-CoV-2 pseudovirus (Huh-7 cells, luciferase)": "< 1"}
{"binder": "B2", "IC50 for neutralizing SARS-CoV-2 pseudovirus (Huh-7 cells, luciferase)": "< 0.1"}
{"binder": "B3", "IC50 for neutralizing SARS-CoV-2 pseudovirus (Huh-7 cells, luciferase)": "< 0.1"}
{"binder": "B4", "IC50 for neutralizing SARS-CoV-2 pseudovirus (Huh-7 cells, luciferase)": "< 0.5"}
{"binder": "B5", "IC50 for neutralizing SARS-CoV-2 pseudovirus (Huh-7 cells, luciferase)": "< 0.1"}
{"binder": "B6", "IC50 for neutralizing SARS-CoV-2 pseudovirus (Huh-7 cells, luciferase)": "< 0.1"}
{"binder": "B7", "IC50 for neutralizing SARS-CoV-2 pseudovirus (Huh-7 cells, luciferase)": "< 0.1"}
{"target": "biotin-labeled SARS-COV-2 RBD domain (SARS-CoV-2, UniProt P0DTC2 319-541)", "assay": "SPR, Biacore T200, biotin-labeled RBD on SA chip, antibody as analyte, 1:1 model", "units": {"Kd": "nM"}}
{"binder": "B8", "Kd": 0.18}
{"binder": "B9", "Kd": 0.824}
{"target": "spike protein (Spike, S protein) of SARS-CoV-2 (SARS-CoV-2, UniProt P0DTC2 14-1273)", "assay": "cell-based or functional assay", "units": {"IC50, Plaque Reduction Neutralization Test (PRNT), SARS-CoV-2 euvirus": "µg/mL"}}
{"binder": "B10", "IC50, Plaque Reduction Neutralization Test (PRNT), SARS-CoV-2 euvirus": 0.5}
{"binder": "B11", "IC50, Plaque Reduction Neutralization Test (PRNT), SARS-CoV-2 euvirus": 0.8}
{"target": "biotin-labeled SARS-COV-2 RBD domain (SARS-CoV-2, UniProt P0DTC2 319-541)", "assay": "SPR, Biacore T200, biotin-RBD on SA chip, antibody as analyte", "units": {"Kd": "nM"}}
{"binder": "B1", "Kd": "< 20"}
{"binder": "B2", "Kd": "< 10"}
{"binder": "B3", "Kd": "< 10"}
{"binder": "B4", "Kd": "< 10"}
{"binder": "B5", "Kd": "< 1"}
{"binder": "B6", "Kd": "< 10"}
{"binder": "B7", "Kd": "< 1"}
